Data published in patent US20140287952A1 (ALDERBIO, published 2014).

T1: human CGRP alpha (human, UniProt P06881 83-119, N-terminally or C-terminally biotinylated (the two ELISAs were run separately))
T1 construct: Bought peptide; N- and C-terminally biotinylated forms were captured on neutravidin plates; also called HuCGRP alpha; CGRPα
T1 peptide (looked up): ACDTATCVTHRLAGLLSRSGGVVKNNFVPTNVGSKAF

B1: Ab2 (antibody, V domains shown)
VH: SVEESGGRLVTPGTPLTLTCTVSGFSLSSYAMSWVRQAPGKGLEWIGIIDAIDNTYYASWAKGRFTISKTSTTVDLKMTSLTTGDTATYFCARASILGYSIATGFNIWGPGTLVTVSS
VL: AYDMTQTPASVEVAVGGTVTIKCQASQSISSHLAWYQQKSGQPPKLLIYRASTLESGVSSRFKGSGSGTEFTLTISDLECADAATYYCQQGYGVSDVDNGFGGGTEVVVK
B2: Ab3 (antibody, V domains shown)
VH: EVQLVESGGGLVQPGGSLRLSCAVSGLDLSSYYMQWVRQAPGKGLEWVGVIGINDNTYYASWAKGRFTISRDNSKTTVYLQMNSLRAEDTAVYFCARGDIWGQGTLVTVSS
VL: QVLTQSPSSLSASVGDRVTINCQASQSVYDNNYLAWYQQKPGKVPKQLIYSTSTLASGVPSRFSGSGSGTDFTLTISSLQPEDVATYYCLGSYDCSSGDCFVFGGGTKVEIKR
B3: Ab4 (antibody, V domains shown)
VH: QSLEESGGRLVTPGTPLTLTCSVSGIDLSGYYMNWVRQAPGKGLEWIGVIGINGATYYASWAKGRFTISKTSSTTVDLKMTSLTTEDTATYFCARGDIWGPGTLVTVSS
VL: QVLTQTPSPVSAAVGSTVTINCQASQSVYHNTYLAWYQQKPGQPPKQLIYDASTLASGVPSRFSGSGSGTQFTLTISGVQCNDAAAYYCLGSYDCTNGDCFVFGGGTEVVVKR
B4: Ab7 (antibody, V domains shown)
VH: QEQLKESGGRLVTPGTPLTLTCTVSGFSLSSYAMIWVRQAPGKGLEYIGYIDTDTSAYYASWVKGRFTISRTSTTVDLKITSPTTEDTATYFCARSYAAYGGYPATFDPWGPGTLVTVSS
VL: DVVMTQTPASVSQPVGGTVTIKCQASEDIYNLLAWYQQKPGQPPKLLIYSASTLASGVPSRFKGSGSGTEYTLTISGLECADAATYYCQNNYLVTTYGVAFGGGTEVVVK
B5: Ab8 (antibody, V domains shown)
VH: QVQLVESGGGVVQPGRSLRLSCAASGFTFSSYAMIWVRQAPGKGLEYIGYIDTDTSAYYASSVKGRFTISRDNSKNTLYLQMSSLRAEDTAVYYCARSYAAYGGYPATFDPWGQGTLVTVSS
VL: DIQMTQSPSSLSASVGDRVTITCQASEDIYNLLAWYQQKPGKVPKLLIYSASTLASGVPSRFSGSGSGTDYTLTISSLQPEDVATYYCQNNYLVTTYGVAFGGGTKVEIK

Columns and labels:
human PCSK9 [1] = target: T2, human PCSK9 (human, UniProt Q8NBP7 31-692, biotinylated in the ELISA (site not stated)); experiment: ELISA: biotinylated human PCSK9 on Neutravidin plates, antibody dilution series, anti-human IgG Fc-HRP, OD450
T2 construct: Biotinylated and captured on Neutravidin plates in the ELISA; Used unlabelled at 3 ug/mL in the HepG2 LDL uptake assay; also called huPCSK9; biotinylated-PCSK9
T2 sequence (Q8NBP7 31-692 limits assumed): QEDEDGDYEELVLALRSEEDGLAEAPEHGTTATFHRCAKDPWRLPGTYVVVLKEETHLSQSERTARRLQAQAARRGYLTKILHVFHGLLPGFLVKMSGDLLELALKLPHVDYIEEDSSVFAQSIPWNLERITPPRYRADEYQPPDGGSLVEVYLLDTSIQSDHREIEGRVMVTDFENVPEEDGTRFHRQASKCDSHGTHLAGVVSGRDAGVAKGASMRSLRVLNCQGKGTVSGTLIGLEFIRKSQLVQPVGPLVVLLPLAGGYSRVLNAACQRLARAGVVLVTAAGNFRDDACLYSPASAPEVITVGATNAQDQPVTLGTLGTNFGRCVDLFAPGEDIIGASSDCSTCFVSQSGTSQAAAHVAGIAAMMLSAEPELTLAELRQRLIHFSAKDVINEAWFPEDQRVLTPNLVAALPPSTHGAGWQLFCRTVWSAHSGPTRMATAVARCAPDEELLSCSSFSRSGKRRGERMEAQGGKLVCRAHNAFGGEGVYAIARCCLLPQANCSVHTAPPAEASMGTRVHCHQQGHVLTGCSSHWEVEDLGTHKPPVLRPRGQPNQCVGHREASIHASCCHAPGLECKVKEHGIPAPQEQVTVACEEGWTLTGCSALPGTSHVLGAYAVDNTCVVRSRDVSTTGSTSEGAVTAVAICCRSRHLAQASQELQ

human PCSK9 [2] = target: T2, human PCSK9; experiment: cell-based or functional assay
human CGRP alpha = target: T1, human CGRP alpha; experiment: ELISA: biotinylated human CGRP alpha on neutravidin plates (the sheet does not say whether N- or C-terminally biotinylated), antibody dilution series, OD450
human beta-NGF = target: T3, human beta-NGF (human, UniProt P01138 122-241, limits assumed, biotinylated in the ELISA (site not stated)); experiment: ELISA: biotinylated hu B-NGF on Neutravidin plates, antibody dilution series, anti-human IgG Fc-HRP, OD450
T3 construct: Biotinylated and captured on Neutravidin plates in the ELISA; Used unlabelled in the TF1 proliferation assay; also called hu B-NGF; huB-NGF
T3 sequence (P01138 122-241 limits assumed): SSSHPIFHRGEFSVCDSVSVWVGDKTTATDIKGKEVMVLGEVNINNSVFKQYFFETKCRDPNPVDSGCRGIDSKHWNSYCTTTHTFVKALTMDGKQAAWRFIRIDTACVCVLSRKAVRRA

Binder | EC50 (human CGRP alpha) [nM] | EC50 (human beta-NGF) [nM] | also measured
B1 | – | – | EC50 (human PCSK9 [1]): 0.174 nM; IC50; LDL uptake assay: BODIPY-LDL uptake (RFUs) by HepG2 cells, antibody pre-incubated with 3 µg/mL PCSK9; RFUs rise with the antibody concentration (human PCSK9 [2]): 17.3 nM
B2 | 0.127 | – | –
B3 | 0.159 | – | –
B4 | – | 0.182 | –
B5 | – | 0.254 | –
